The target of this assay is HLA-A*02:01 (Homo sapiens, UniProt P04439, D140Y/D185E/D98H/E176V/E277Q/G131W/G231S/I119V/I121R/I166T/I218V/L300P/L318F/N151K/N90K/P208A/P217A/Q86G/Q94H/R138H/R169H/T345S). Nature of the assay: MHC binding assay: UV-ligand exchange with beta2m ELISA (exchange yield). The note with it: binding to HLA-A*02:01, β2m ELISA. An outline of the steps:
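Peptide–HLA-A*02:01 complexes formed by UV-induced exchange of a photocleavable ligand for the test peptide. Exchange products diluted 100-fold and captured on streptavidin-coated plates. Stabilized complexes detected with HRP anti-β2m (1 h, 37° C.) and TMB, A450; exchange yield reported.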
(ELISA stands for enzyme-linked immunosorbent assay.)
Consider “123 (NLWDLTDASVV; listed as Homo sapiens) [compound 123]”, for which the “Peptide exchange (MHC class I binding score, peptide exchange yield)” value (shortened to “Peptide exchange”) is listed as ““+++” (≥50 = +++)”. Under “623 (YLVEDIQHI; listed as Homo sapiens) [compound 623]” stands ““+++” (≥50 = +++)”; under “428 (KLGHTDILVGV; listed as Homo sapiens) [compound 428]”, ““++” (≥20% = ++)”. Under “14 (AAYGGLNEKSFV; listed as Homo sapiens) [compound 14]” stands ““+++” (≥50 = +++)”; under “146 (SLATAGDGLIEL; listed as Homo sapiens) [compound 146]”, ““++” (≥20% = ++)”; under “459 (ALITEVVRL; listed as Homo sapiens) [compound 459]”, ““++” (≥20% = ++)”. Under “196 (YLYSVEIKL; listed as Homo sapiens) [compound 196]” stands ““++++” (≥75% = ++++)”; under “57 (TLAELQPPVQL; listed as Homo sapiens) [compound 57]”, ““+++” (≥50 = +++)”; under “190 (FLSSLTETI; listed as Homo sapiens) [compound 190]”, ““+++” (≥50 = +++)”. For “163 (ALDEMGDLLQL; listed as Homo sapiens) [compound 163]”, the “Peptide exchange” value was ““+++” (≥50 = +++)”.

Regarding “580 (LLMENAERV; listed as Homo sapiens) [compound 580]”, the “Peptide exchange” value is ““++” (≥20% = ++)”. Under “267 (ALQDFLLSV; listed as Homo sapiens) [compound 267]” stands ““+++” (≥50 = +++)”; under “219 (KLSDIGITV; listed as Homo sapiens) [compound 219]”, ““+++” (≥50 = +++)”; under “490 (FLLQHVQEL; listed as Homo sapiens) [compound 490]”, ““+++” (≥50 = +++)”. As for “270 (LLLDEEGTFSL; listed as Homo sapiens) [compound 270]”, the entry is ““++” (≥20% = ++)”; as for “584 (ALAEVAAMENV; listed as Homo sapiens) [compound 584]”, ““+++” (≥50 = +++)”. For the substance “325 (FIMPATVADATAV; listed as Homo sapiens) [compound 325]”, the “Peptide exchange” value is ““+++” (≥50 = +++)”. For the substance “471 (YLYNNMIAKI; listed as Homo sapiens) [compound 471]”, the “Peptide exchange” value is recorded as ““+++” (≥50 = +++)”. In the case of “275 (YLVYILNEL; listed as Homo sapiens) [compound 275]”, the “Peptide exchange” value is reported as ““++” (≥20% = ++)”. Under “308 (SQYSGQLHEV; listed as Homo sapiens) [compound 308]” stands ““+++” (≥50 = +++)”; under “255 (VLASYNLTV; listed as Homo sapiens) [compound 255]”, ““+++” (≥50 = +++)”; under “300 (ALLGQTFSL; listed as Homo sapiens) [compound 300]”, ““+++” (≥50 = +++)”. As for “99 (ALVSKGLATV; listed as Homo sapiens) [compound 99]”, the entry is ““++” (≥20% = ++)”; as for “108 (ALFPGVALLLA; listed as Homo sapiens) [compound 108]”, ““++++” (≥75% = ++++)”; as for “375 (SLTETIEGV; listed as Homo sapiens) [compound 375]”, ““++” (≥20% = ++)”. As for “73 (NIFDLQIYV; listed as Homo sapiens) [compound 73]”, the entry is ““+++” (≥50 = +++)”; as for “555 (YVLEGLKSV; listed as Homo sapiens) [compound 555]”, ““+++” (≥50 = +++)”; as for “168 (KILDADIQL; listed as Homo sapiens) [compound 168]”, ““++++” (≥75% = ++++)”. As to “390 (ALFMKQIYL; listed as Homo sapiens) [compound 390]”, the “Peptide exchange” value was ““+++” (≥50 = +++)”. Consider “457 (SLLPGNLVEKV; listed as Homo sapiens) [compound 457]”, for which the “Peptide exchange” value was ““+++” (≥50 = +++)”. Turning to “83 (ILAPTVMMI; listed as Homo sapiens) [compound 83]”, the “Peptide exchange” value was ““+++” (≥50 = +++)”.

Regarding “96 (YIFTDNPAAV; listed as Homo sapiens) [compound 96]”, the “Peptide exchange” value is ““+++” (≥50 = +++)”. As for “236 (GLLEAKVSL; listed as Homo sapiens) [compound 236]”, the entry is ““+++” (≥50 = +++)”; as for “612 (YLYNEGLSV; listed as Homo sapiens) [compound 612]”, ““+++” (≥50 = +++)”; as for “616 (VLIDEVESL; listed as Homo sapiens) [compound 616]”, ““+++” (≥50 = +++)”.

As for “327 (GLAPFTEGISFV; listed as Homo sapiens) [compound 327]”, the “Peptide exchange” value is reported as ““+++” (≥50 = +++)”. Under “130 (FLWNGEDSALL; listed as Homo sapiens) [compound 130]” stands ““+++” (≥50 = +++)”; under “154 (ALDDGTPAL; listed as Homo sapiens) [compound 154]”, ““++” (≥20% = ++)”; under “522 (TLWYRSPEV; listed as Homo sapiens) [compound 522]”, ““++” (≥20% = ++)”. As for “201 (RLVDYLEGI; listed as Homo sapiens) [compound 201]”, the entry is ““+++” (≥50 = +++)”; as for “12 (SLWPDPMEV; listed as Homo sapiens) [compound 12]”, ““+++” (≥50 = +++)”. As for “92 (YLIPFTGIVGL; listed as Homo sapiens) [compound 92]”, the entry is ““++” (≥20% = ++)”; as for “46 (ILTEENIHL; listed as Homo sapiens) [compound 46]”, ““+++” (≥50 = +++)”. Consider “568 (TLYDIAHTPGV; listed as Homo sapiens) [compound 568]”, for which the “Peptide exchange” value is ““++++” (≥75% = ++++)”. Turning to “557 (KLYDDMIRL; listed as Homo sapiens) [compound 557]”, the “Peptide exchange” value is ““+++” (≥50 = +++)”.

As for “492 (SLFDGFADGLGV; listed as Homo sapiens) [compound 492]”, the “Peptide exchange” value was ““+++” (≥50 = +++)”. As for “516 (AVGPASILKEV; listed as Homo sapiens) [compound 516]”, the “Peptide exchange” value is on record as ““++” (≥20% = ++)”. Under “560 (ALWDIETGQQTTT; listed as Homo sapiens) [compound 560]” stands ““+++” (≥50 = +++)”; under “276 (ALFTFSPLTV; listed as Homo sapiens) [compound 276]”, ““+++” (≥50 = +++)”. Under “469 (YLASDEITTV; listed as Homo sapiens) [compound 469]” stands ““+++” (≥50 = +++)”. Consider “441 (ALLENPKMEL; listed as Homo sapiens) [compound 441]”, for which the “Peptide exchange” value is reported as ““+++” (≥50 = +++)”.

Turning to “544 (LLWDVPAPSL; listed as Homo sapiens) [compound 544]”, the “Peptide exchange” value was ““+++” (≥50 = +++)”.

For “376 (AMFESSQNVLL; listed as Homo sapiens) [compound 376]”, the “Peptide exchange” value is on record as ““++” (≥20% = ++)”.

With “136 (YLADPSNLFVV; listed as Homo sapiens) [compound 136]”, the “Peptide exchange” value is recorded as ““+++” (≥50 = +++)”.

On to “611 (YLLDDGTLVV; listed as Homo sapiens) [compound 611]”, for which the “Peptide exchange” value was ““++++” (≥75% = ++++)”. Regarding “271 (LVYPLELYPA; listed as Homo sapiens) [compound 271]”, the “Peptide exchange” value is listed as ““+++” (≥50 = +++)”.

“70 (GLLDYPVGV; listed as Homo sapiens) [compound 70]”: the “Peptide exchange” value is reported as ““+++” (≥50 = +++)”.

As for “588 (SLLPLSHLV; listed as Homo sapiens) [compound 588]”, the “Peptide exchange” value is ““+++” (≥50 = +++)”. On to “531 (YTLPIASSIRL; listed as Homo sapiens) [compound 531]”, for which the “Peptide exchange” value is listed as ““+++” (≥50 = +++)”. Under “225 (SLLKVLPAL; listed as Homo sapiens) [compound 225]” stands ““+++” (≥50 = +++)”; under “306 (ALVNVQIPL; listed as Homo sapiens) [compound 306]”, ““+++” (≥50 = +++)”.
